The values that follow come from patent publication US20170014486A1.

This test has as its target natriuretic polypeptide receptor A (Npra), mouse (mouse) (UniProt P18293). Nature of the test: cell-based or functional assay.
Sequence of UniProt P18293 (P18293 29-1057 limits assumed): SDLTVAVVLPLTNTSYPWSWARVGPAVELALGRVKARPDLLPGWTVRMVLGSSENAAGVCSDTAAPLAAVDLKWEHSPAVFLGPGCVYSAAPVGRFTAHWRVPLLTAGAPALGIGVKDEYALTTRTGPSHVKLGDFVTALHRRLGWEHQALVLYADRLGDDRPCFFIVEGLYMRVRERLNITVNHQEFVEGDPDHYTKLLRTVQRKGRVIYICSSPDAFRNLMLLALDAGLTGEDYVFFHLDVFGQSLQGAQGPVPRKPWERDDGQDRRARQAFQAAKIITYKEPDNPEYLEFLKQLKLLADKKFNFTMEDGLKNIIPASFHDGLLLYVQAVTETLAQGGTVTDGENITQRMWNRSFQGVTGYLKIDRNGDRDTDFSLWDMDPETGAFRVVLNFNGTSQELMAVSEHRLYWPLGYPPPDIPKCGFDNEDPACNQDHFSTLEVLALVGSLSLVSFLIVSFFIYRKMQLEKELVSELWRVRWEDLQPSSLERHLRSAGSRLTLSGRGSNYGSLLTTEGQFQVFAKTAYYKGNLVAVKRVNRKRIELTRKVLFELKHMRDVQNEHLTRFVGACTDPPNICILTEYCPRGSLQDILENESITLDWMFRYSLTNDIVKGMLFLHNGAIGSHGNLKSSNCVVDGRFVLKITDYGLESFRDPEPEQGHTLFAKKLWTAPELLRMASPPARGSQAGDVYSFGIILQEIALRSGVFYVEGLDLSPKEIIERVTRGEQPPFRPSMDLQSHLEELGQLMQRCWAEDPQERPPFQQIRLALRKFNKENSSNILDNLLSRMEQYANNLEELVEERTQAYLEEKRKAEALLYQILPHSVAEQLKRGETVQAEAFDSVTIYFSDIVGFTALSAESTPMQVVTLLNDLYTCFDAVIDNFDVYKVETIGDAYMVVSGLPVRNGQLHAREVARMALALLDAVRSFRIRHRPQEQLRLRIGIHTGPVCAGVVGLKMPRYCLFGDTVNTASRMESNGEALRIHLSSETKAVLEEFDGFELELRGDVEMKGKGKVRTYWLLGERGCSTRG

As for Nppb-saporin conjugate, the Npra-positive spinal cord neurons eliminated after intrathecal injection (ISH cell counts) was found to be 70%.
